Test results: US20220312749A1 (BIOCYTOGEN PHARMACEUTICALS BEIJING, published 2022)

Columns and labels:
Assay in all cases: inferred by the filing from p-STAT5 flow cytometry on humanized mouse splenocytes
mouse IL2RG = target: T1, mouse IL2RG (mouse, UniProt P34902 23-369)
T1 construct: whole, on cells; also called CD132; common gamma chain
T1 sequence (looked up): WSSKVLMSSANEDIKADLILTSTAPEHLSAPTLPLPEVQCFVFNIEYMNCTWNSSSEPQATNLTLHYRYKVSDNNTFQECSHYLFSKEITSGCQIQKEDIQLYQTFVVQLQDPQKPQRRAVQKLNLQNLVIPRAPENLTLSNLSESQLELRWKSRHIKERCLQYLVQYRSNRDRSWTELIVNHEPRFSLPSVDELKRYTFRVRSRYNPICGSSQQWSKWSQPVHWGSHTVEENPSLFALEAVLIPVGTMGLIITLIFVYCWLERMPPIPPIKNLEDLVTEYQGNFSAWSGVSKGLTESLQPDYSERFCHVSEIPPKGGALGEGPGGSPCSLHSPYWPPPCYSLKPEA
Protocol: (§1) p-STAT5 is a known downstream signal in the IL2/IL2RA-mediated signaling pathway. Thus, the level of p-STAT5 in the IL2RA gene humanized mice can be detected to verify whether the IL2/IL2RA signaling pathway is functional in the humanized mice. Spleen cells from 14-week old wild-type C57BL/6 mice and IL2RA gene humanized homozygous mice were isolated (5×10⁵ cells/well, 4 wells each) and incubated in a 37° C. incubator for 30 minutes. […] Then, the stimulated cells were stained by APC Rat Anti-Mouse CD3 Molecular Complex, permeabilized, and stained by Phospho-Stat5 (Tyr694) (D47E7) XP® Rabbit mAb and Anti-rabbit IgG (H+L), F(ab′)2 Fragment (Alexa Fluor® 488 Conjugate), followed by flow cytometry analysis.

[1] = target: T2, Mouse recombinant interleukin 2 (mIL2) (mouse, UniProt P04351 21-169)
T2 construct: Bought reagent; also called recombinant mouse IL2; mouse IL2
T2 sequence (looked up): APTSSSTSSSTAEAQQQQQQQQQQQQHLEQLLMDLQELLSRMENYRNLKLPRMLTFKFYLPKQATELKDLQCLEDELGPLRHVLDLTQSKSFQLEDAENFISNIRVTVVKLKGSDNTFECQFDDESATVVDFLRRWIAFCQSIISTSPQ
Protocol: as §1

mouse IL2RB = target: T3, mouse IL2RB (mouse, UniProt P16297 27-539)
T3 construct: whole, on cells; also called CD122
T3 sequence (looked up): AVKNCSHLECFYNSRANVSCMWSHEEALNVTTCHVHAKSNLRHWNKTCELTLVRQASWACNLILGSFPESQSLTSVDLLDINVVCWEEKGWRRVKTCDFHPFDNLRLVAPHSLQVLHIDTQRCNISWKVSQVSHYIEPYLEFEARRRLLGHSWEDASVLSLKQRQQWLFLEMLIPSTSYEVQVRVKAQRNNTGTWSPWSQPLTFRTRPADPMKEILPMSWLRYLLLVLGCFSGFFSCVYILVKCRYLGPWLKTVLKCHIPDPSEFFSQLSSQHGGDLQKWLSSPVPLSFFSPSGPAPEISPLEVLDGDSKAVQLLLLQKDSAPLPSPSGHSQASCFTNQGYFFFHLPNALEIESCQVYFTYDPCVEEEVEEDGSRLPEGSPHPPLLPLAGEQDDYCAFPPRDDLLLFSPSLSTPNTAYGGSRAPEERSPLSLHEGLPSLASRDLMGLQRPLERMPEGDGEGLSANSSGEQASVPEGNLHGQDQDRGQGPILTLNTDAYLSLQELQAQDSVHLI
Protocol: as §1

Measured: binding result

B1: humanized IL2RA protein (chimeric human/mouse IL2RA expressed by B-hIL2RA mice) (receptor)
chain: ELCDDDPPEIPHATFKAMAYKEGTMLNCECKRGFRRIKSGSLYMLCTGNSSHSSWDNQCQCTSSATRNTTKQVTPQPEEQKERKTTEMQSPMQPVDQASLPGHCREPPPWENEATERIYHFVVGQMVYYQCVQGYRALHRGPAESVCKMTHGKTRWTQPQLICTGEMETSQFPGEEKPQASPEGRPESETSCLVTTTDFQIQTEMAATMETSIFTTEYKVAVASCLFLLISILLLSGLTWQHRWRKSRRTI
notes: also called chimeric IL2RA; engineered mouse IL2RA after humanization
binds: mouse IL2RG | [1] | mouse IL2RB
